B1: ADCY9: engineered meganuclease (SEQ ID NO: 3) designed to cleave adenylate cyclase 9 gene (protein)
chain: MANTKYNEEFLLYLAGFVDGDGSIIAQIKPNQSYKFKHQLSLTFRVTQKTQRRWFLDKLVDEIGVGYVRDSGSVSNYDLSEIKPLHNFLTQLQPFLELKQKQANLVLKIIEQLPSAKESPDKFLEVCTWVDQVAALNDSKTRKTTSETVRAVLDSLSEKKKSSPAAGGSDKYNQALSKYNQALSKYNQALSGGGGSNKKFLLYLAGFVDSDGSIIAQIKPDQSYKFKHQLGLTFQVTQKTQRRWFLDKLVDRIGVGYVRDRGSVSDYILSEIKPLHNFLTQLQPFLKLKQKQANLVLKIIEQLPSAKESPDKFLEVCTWVDQVAALNDSKTRKTTSETVRAVLDSLSEKKKSSP
B2: I-CreI: wild-type I-CreI meganuclease (… homing endonuclease), SEQ ID NO: 1, recombinant Cterm His-tag (protein, listed as Chlamydomonas reinhardtii)
chain: MNTKYNKEFLLYLAGFVDGDGSIIAQIKPNQSYKFKHQLSLTFQVTQKTQRRWFLDKLVDEIGVGYVRDRGSVSDYILSEIKPLHNFLTQLQPFLKLKQKQANLVLKIIEQLPSAKESPDKFLEVCTWVDQIAALNDSKTRKTTSETVRAVLDSLSEKKKSSP
modifications: C-terminal His-tag
B3: XPC4: engineered meganuclease (SEQ ID NO: 2) designed to cleave xeroderma pigmentosum group C gene (XPC) (protein)
chain: MANTKYNEEFLLYLAGFVDGDGSIIAQIKPNQSHKFKHALQLTFKVTQKTQRRWFLDKLVDEIGVGYVQDSGSVSNYILSEIKPLHNFLTQLQPFLELKQKQANLALKIIEQLPSAKESPDKFLEVCTWVDQVAALNDSKTRKTTSETVRAVLDSLSEKKKSSPAAGGSDKYNQALSKYNQALSKYNQALSGGGGSNKKFLLYLAGFVDSDGSIIAQIKPNQSHKFKHQLSLAFQVTQKTQRRWFLDKLVDRIGVGYVRDRGSVSDYILSKIKPLHNFLTQLQPFLKLKQKQANLVLKIIEQLPSAKESPDKFLEVCTWVDQVAALNDSKTRKTTSETVRAVLDSLSEKKKSSP

Assays:
[1] = tested on: ADCY9 endogenous locus in 293H cells; assay: Meganuclease-induced gene targeting assay, ADCY9 locus; format: cell-based, human; conditions: for targeted events, % of the transfected cells: ADCY9 meganuclease + repair matrix, n=2
Experimental: FIG. 14: ADCY9 meganuclease efficiency is impaired by DNA methylation in vivo. 293H cells were co-transfected with 5 μg of […] meganuclease expressing vector or empty vector and 2 μg of DNA repair matrix vector in presence or absence of DNA methylation inhibitor (5-aza-2′deoxycytidine). 480 individual cellular clones were analyzed in each condition for the presence of targeted events using specific PCR amplification.
Cell culture as well as general transfection conditions were described in Example 4. For this assay, 293H cells were co-transfected with 5 μg of ADCY9 meganuclease expressing vector and 2 μg of DNA repair matrix. The DNA repair matrix consists of a left and right arms corresponding to isogenic sequences of 1 kb located on both sides of the meganuclease recognition site. These two homology arms are separated by a heterologous fragment of 29 bp (sequence: […], SEQ ID NO: 64). Two days post-transfection, cells were replated in 10 cm dish. Two weeks later, individual clones were picked and subsequently amplified in 96 wells plate for 3 days. 480 individual cellular clones were then analyzed per condition. DNA extraction was performed with the ZR-96 genomic DNA kit (Zymo research) according to the supplier's protocol. The detection of targeted DNA matrix integrations was performed by specific PCR amplification using the primers ADCY9_F4: 5′-[…]-3′ (specific to the 29 bp of heterologous sequence) (SEQ ID NO: 50) and ADCY9_R4: 5′-[…]-3′ (specific to a genomic sequence located outside of the homology arm) (SEQ ID NO: 51).

[2] = tested on: XPC4 target locus in 293H cells; assay: Meganuclease-induced mutagenesis at XPC4 target locus by deep sequencing, 5-aza-2-deoxycytidine treatment; format: cell-based, human
Experimental: FIG. 10: Frequencies of mutagenesis events measured by deep sequencing. Cells were pre-treated with 5-aza-2-deoxycytidine at 0.2 μM or 1 μM 48 hours before transfection with XPC4 meganuclease or empty vector. The treatment was maintained 48 hours post-transfection. Two days post-transfection, the genomic DNA was extracted and a PCR with primers surrounding target site was performed. The results were expressed as a percentage of PCR fragments containing a mutation.
The human 293H cells (ATCC) were plated at a density of 1.2×10^6 cells per 10 cm dish in complete medium (DMEM supplemented with 2 mM L-glutamine, penicillin (100 IU/ml), streptomycin (100 μg/ml), amphotericin B (Fongizone: 0.25 μg/ml, Invitrogen-Life Science) and 10% FBS) supplemented with 5-aza-deoxycytidine. The next day, cells were transfected with 3 μg of meganuclease expression vector in the presence of 5-aza-deoxycytidine and Lipofectamine 2000 transfection reagent (Invitrogen) according to the manufacturer's protocol.
Cells were pre-treated with 5-aza-deoxycytidine at 0.2 μM or 1 μM 48 hours before transfection and the treatment was maintained 48 hours post-transfection. As a control, cells not treated with 5-aza-2-deoxycytidine (NT) were used. Extraction of genomic DNA was performed 48 hours after transfection.
After genomic DNA extraction, the XPC4 target locus was amplified with specific primers flanked by specific adaptator needed for HTS sequencing on the 454 sequencing system (454 Life Sciences)
5000 to 10 000 sequences per sample were analyzed.

[3] = biological target: random target (stretch of 12 GA repeats); assay: In vitro binding assay with random target
Experimental: Fluorescein labeled C1234 oligonucleotides were synthesized and HPLC-purified by Eurogentec. To prepare C 1234 duplex corresponding to I-Cre I double strand DNA wild type target, C1234 forward (SEQ ID NO: 31, “a” strand below) labeled with Fluorescein on its 5′ end was mixed with 1 equivalent of C1234_reverse (SEQ ID NO: 32, “b” strand below) in 100 mM Tris-HCl, 50 mM EDTA, 150 mM NaCl, pH8. The mixture was heated to 95° C. for 2 min and then cooled down to 25° C. over 1 hour. C1234 duplex was eventually purified by anion exchange chromatography using a miniQ PE column (GE healthcare) pre-equilibrated with buffer A (20 mM Tris-HCl, pH7.4). Single stranded oligonucleotides and other contaminants were first discarded using a 0 to 360 mM NaCl step gradient and elution of pure C1234 duplex was performed with a 360-1000 mM NaCl linear gradient (5 column volumes). C 1234 duplex and fluorescein final concentrations were assessed by spectrophotometry using their respective extinction coefficients ε260nm=62900 M^−1 cm^−1 and ε495nm=83000 M^−1 cm^−1. As expected, a ratio [C1234 duplex]/[fluorescein]˜1 was obtained. […] After 30 minutes incubation, the fluorescence anisotropy of the mixture was recorded with a Pherastar Plus (BMG Labtech) operating in fluorescence polarization end point mode with excitation and emission wavelengths set to 495 and 520 nm respectively. Apparent dissociation constants were determined by fitting raw data by an hyperbolic function (Ax=(A∞*[Meganuclease])/(Kd+[Meganuclease]) with Ax, the fluorescence anisotropy value obtained at a given meganuclease concentration, A∞, the fluorescence anisotropy value obtained at saturating concentration of meganuclease and Kd the dissociation constant of the equilibrium studied).

[4] = tested on: random target (stretch of 12 GA repeats); assay: In vitro single turn over cleavage assay with random target; format: biochemical

| Molecule | targeted events ([1]; absence of meganuclease, with 5-aza-2′deoxycytidine treatment) | mutagenesis ([2]; empty vector, 1 μM of 5-aza-2′deoxycytidine) | Kd [3] | targeted events, % of the transfected cells ([1]; 5-aza-2′deoxycytidine (0.2 μM)) | targeted events, % of the transfected cells ([1]; absence of 5-aza-2′deoxycytidine) | increase of targeted event frequency ([1]; with 5-aza-2′deoxycytidine (0.2 μM) vs without) | kcat [4] | PCR fragments carrying a mutation ([2]; XPC4 meganuclease, absence of 5-aza-2′deoxycytidine) | mutations ([2]; XPC4 meganuclease, samples treated with 5-aza-2′deoxycytidine) |
| --- | --- | --- | --- | --- | --- | --- | --- | --- | --- |
| Nc1ncn([C@H]2C[C@H](O)[C@@H](CO)O2)c(=O)n1 [5-aza-2′deoxycytidine, reference compound] | no targeted events could be detected | low or absent | – | – | – | – | – | – | – |
| B1 | – | – | > 1 µM | 3.37%±0.66 | 0.70%±0.14 | 4.8 fold | <1.7e-06 s⁻¹ | – | – |
| B2 | – | – | > 1 µM | – | – | – | <1.7e-06 s⁻¹ | – | – |
| B3 | – | – | > 1 µM | – | – | – | <1.7e-06 s⁻¹ | 0.2-0.5% | up to 7.6% |

From patent US20130196320A1, “METHOD FOR IMPROVING CLEAVAGE OF DNA BY ENDONUCLEASE SENSITIVE TO METHYLATION” (CELLECTIS, priority 2010, published 2013)
